Results taken from PMC10865538 (BMC Infectious Diseases, 2024).

Target: SARS-CoV-2 S protein receptor-binding domain (R319-F541) (SARS-CoV-2, UniProt P0DTC2)
Experiment: ELISA
Settings: both partners purified

B1: sdAb42 (VHH)
VHH: EVQLVESGGGLVQPGGSLRLSCAASGNTSTRHPMSWVRQAPGKGLELVASIGRGEITYYADSVKGRFTISRDNSKNTLYLQMNSLRAEDTAVYYCAVDAVFGGRHSHWGQGTLVTVSS
- binding result: binds

B2: sdAb10 (VHH)
VHH: EVQLVESGGGLVQPGGSLRLSCAASGNTFPARTMSWVRQAPGKGLELVASIGPGRSTIYADSVKGRFTISRDNSKNTLYLQMNSLRAEDTAVYYCAVAYTSGLALRGSFSYWGQGTLVTVSS
- binding result: binds

B3: sdAb38 (VHH)
VHH: EVQLVESGGGLVQPGGSLRLSCAASGNTSTRHPMSWVRQAPGKGLELVASIGRGEITYYADSVKGRFTISRDNSKNTLYLQMNSLRAEDTAVYYCAVCLRSVFVNCHNFAYWGQGTLVTVSS
- binding result: binds

B4: sdAb39 (VHH)
VHH: EVQLVESGGGLVQPGGSLRLSCAASGNTSTRHPMSWVRQAPGKGLELVASIGRGEITYYADSVKGRFTISRDNSKNTLYLQMNSLRAEDTAVYYCAAFVDFLSRHNSRRPYPHGYWGQGTLVTVSS
- EC50: 4 nM

B5: sdAb12 (VHH)
VHH: EVQLVESGGGLVQPGGSLRLSCAASGNTFPARTMSWVRQAPGKGLELVASIGRGEITYYADSVKGRFTISRDNSKNTLYLQMNSLRAEDTAVYYCAAPAHGSWMSRRPHIYWGQGTLVTVSS
- binding result: binds
